For data set [1], the target named is c-Src SH2. The data set can be described thus: SH2 binding enrichment of the phosphorylated peptide, bacterial display (enrichment ratio); higher = better substrate or ligand; peptides without Tyr show the background.
For data set [2], the target named is SHP2-C SH2. The description is as above.
The target of data set [3] is Grb2 SH2 (UniProt P62993). The description is as above.
Data set [4] addresses EPHB1 (UniProt P54762). The data set can be described thus: phosphorylation enrichment, bacterial display (enrichment ratio); higher = better substrate or ligand; peptides without Tyr show the background.
The target of data set [5] is FGFR1 (UniProt P11362). The description is as above.
Data set [6] concerns the target FGFR3 (UniProt P22607). The data set is described as above.
For data set [7], the system named is c-Src. Described as above.
Data set [8] concerns c-Abl (mouse). The description is as above.
Data set [9] deals with EPHB2 (UniProt P29323). The description is as above.
In data set [10] the target is Fyn (UniProt P06241). Described as above.
Data set [11] concerns Fer (mouse). The data set is described as above.
In data set [12] the target is Jak2 (UniProt O60674). The data set is described as above.
The target in data set [13] is MERTK (UniProt Q12866). The data set is described as above.
Data set [14] deals with AncSZ. Described as above.
The target in data set [15] is Hck (UniProt P08631). The data set is described as above.
The target in data set [16] is Fes (UniProt P07332). Described as above.
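Throughout, for SH2 binding enrichment of the phosphorylated peptide, bacterial display: peptide library displayed on the E. coli surface as eCPX fusions, selected cells deep-sequenced, score is each peptide's frequency after selection divided by its frequency in the input.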
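Throughout, for phosphorylation enrichment, bacterial display: 11-residue human phosphosite peptides and single-mutation variants displayed on the E. coli surface, counted by deep sequencing, each peptide's frequency after selection divided by its frequency in the unselected input library; frequency after pTyr selection over input frequency; kinase dosed for 20-30% of maximal phosphorylation in three min.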

FGFR1, sequence (P11362 whole entry, looked up): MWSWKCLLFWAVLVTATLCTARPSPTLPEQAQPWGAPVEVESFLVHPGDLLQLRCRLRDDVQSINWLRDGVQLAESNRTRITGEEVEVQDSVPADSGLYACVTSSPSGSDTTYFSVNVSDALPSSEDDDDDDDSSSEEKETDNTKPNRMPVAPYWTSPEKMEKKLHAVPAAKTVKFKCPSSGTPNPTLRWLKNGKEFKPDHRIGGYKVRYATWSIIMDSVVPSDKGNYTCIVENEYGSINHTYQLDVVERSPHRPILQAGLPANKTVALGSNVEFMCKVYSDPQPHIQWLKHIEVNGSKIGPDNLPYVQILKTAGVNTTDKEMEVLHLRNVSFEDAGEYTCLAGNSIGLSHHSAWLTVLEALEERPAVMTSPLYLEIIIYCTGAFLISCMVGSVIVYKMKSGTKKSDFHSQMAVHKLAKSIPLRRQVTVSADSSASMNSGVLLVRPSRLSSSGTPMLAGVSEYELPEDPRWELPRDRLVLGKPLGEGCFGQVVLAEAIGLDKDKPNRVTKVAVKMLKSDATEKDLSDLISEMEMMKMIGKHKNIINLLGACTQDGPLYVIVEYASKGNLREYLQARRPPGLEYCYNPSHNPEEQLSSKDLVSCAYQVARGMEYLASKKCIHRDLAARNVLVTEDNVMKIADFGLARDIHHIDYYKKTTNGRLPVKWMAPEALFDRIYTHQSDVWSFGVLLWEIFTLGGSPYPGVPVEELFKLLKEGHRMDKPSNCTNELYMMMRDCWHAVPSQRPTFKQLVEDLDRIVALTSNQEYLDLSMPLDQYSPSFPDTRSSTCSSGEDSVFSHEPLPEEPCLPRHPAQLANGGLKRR
EPHB1, sequence (P54762 whole entry, looked up): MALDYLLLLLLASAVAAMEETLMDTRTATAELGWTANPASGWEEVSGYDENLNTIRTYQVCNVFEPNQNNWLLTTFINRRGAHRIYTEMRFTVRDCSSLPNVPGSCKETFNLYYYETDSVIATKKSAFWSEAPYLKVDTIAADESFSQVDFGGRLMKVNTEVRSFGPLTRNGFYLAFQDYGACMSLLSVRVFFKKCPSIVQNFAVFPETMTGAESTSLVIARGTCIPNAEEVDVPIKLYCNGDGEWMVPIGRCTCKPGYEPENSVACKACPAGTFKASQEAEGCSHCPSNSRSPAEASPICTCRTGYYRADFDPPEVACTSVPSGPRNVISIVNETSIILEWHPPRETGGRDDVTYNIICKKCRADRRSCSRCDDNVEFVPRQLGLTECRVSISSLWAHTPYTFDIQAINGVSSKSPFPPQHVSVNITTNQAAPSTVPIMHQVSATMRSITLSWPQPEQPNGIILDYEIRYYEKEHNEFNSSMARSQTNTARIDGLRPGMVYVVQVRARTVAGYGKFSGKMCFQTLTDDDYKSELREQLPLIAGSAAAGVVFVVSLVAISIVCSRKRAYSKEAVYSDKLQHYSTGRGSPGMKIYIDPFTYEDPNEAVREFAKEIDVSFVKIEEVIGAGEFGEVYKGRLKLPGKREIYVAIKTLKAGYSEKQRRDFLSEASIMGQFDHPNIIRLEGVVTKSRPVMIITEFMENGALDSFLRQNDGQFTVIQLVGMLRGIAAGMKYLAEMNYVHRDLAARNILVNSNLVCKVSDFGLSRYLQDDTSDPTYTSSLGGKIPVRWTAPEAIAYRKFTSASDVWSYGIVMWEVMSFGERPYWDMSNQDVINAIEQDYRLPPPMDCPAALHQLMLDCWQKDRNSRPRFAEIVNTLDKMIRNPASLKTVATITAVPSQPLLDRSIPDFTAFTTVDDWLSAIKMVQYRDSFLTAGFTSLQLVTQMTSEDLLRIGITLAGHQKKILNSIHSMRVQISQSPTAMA
Hck, sequence (P08631 whole entry, looked up): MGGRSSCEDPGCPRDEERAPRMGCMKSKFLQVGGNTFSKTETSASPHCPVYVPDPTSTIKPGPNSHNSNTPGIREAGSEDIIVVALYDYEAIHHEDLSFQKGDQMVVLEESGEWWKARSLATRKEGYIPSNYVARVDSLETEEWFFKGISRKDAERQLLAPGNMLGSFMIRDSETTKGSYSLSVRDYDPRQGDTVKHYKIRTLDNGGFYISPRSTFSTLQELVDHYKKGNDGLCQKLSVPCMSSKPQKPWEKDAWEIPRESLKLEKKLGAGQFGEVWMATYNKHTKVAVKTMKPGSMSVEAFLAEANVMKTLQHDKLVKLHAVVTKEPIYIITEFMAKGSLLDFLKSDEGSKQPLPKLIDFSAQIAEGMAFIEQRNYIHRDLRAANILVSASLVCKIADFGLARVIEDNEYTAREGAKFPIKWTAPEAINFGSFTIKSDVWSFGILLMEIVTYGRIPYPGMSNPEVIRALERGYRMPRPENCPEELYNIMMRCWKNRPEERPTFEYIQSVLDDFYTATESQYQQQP
Jak2, sequence (O60674 whole entry, looked up): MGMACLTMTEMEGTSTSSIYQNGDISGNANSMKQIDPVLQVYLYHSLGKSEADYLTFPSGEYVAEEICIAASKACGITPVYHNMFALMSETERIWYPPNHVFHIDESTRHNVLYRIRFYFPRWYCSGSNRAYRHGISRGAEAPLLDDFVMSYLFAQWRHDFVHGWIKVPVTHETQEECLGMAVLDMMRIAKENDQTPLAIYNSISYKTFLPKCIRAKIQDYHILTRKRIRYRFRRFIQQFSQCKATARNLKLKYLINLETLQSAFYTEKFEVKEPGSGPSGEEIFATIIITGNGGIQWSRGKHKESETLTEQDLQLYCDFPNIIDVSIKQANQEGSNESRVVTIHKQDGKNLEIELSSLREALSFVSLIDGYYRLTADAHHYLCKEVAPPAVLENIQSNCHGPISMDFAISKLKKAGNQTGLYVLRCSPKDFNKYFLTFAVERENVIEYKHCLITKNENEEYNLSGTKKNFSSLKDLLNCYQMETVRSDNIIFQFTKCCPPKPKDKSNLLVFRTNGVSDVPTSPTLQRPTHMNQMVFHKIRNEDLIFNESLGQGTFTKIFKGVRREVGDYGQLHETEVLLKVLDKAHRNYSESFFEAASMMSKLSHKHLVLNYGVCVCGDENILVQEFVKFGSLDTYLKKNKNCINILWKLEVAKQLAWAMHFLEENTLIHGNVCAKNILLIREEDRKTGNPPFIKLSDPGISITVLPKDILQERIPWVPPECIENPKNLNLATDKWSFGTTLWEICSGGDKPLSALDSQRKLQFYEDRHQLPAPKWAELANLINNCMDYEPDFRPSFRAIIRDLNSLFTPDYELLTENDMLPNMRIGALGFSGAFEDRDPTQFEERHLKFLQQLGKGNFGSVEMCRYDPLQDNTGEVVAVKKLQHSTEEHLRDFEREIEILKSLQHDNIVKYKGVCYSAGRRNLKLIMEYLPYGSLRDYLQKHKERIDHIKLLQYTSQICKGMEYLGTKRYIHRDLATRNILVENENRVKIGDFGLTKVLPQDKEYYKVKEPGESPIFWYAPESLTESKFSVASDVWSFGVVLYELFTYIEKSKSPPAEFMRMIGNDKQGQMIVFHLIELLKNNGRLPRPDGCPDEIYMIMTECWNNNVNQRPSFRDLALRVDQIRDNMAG
Grb2 SH2, sequence (P62993 whole entry, looked up): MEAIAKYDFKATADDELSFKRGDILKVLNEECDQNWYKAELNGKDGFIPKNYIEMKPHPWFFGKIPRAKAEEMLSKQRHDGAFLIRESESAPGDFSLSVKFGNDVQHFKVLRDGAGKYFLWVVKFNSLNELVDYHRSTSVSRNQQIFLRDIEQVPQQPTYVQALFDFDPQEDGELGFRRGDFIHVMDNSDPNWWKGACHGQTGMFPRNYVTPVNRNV
Fyn, sequence (P06241 whole entry, looked up): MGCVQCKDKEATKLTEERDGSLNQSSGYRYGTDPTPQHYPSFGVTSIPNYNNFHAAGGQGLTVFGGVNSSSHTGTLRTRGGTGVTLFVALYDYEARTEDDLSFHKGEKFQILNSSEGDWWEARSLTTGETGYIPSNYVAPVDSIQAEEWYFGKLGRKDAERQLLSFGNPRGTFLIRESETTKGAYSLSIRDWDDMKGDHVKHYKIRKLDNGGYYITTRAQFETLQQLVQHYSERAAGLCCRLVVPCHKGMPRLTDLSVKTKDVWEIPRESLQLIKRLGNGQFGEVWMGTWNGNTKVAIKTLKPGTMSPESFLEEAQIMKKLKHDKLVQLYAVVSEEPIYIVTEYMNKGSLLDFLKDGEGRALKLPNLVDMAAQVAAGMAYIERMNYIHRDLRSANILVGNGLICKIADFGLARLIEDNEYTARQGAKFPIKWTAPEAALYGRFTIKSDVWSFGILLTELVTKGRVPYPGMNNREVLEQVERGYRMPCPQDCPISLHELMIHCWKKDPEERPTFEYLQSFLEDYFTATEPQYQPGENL
Fes, sequence (P07332 whole entry, looked up, the tested form may be a part): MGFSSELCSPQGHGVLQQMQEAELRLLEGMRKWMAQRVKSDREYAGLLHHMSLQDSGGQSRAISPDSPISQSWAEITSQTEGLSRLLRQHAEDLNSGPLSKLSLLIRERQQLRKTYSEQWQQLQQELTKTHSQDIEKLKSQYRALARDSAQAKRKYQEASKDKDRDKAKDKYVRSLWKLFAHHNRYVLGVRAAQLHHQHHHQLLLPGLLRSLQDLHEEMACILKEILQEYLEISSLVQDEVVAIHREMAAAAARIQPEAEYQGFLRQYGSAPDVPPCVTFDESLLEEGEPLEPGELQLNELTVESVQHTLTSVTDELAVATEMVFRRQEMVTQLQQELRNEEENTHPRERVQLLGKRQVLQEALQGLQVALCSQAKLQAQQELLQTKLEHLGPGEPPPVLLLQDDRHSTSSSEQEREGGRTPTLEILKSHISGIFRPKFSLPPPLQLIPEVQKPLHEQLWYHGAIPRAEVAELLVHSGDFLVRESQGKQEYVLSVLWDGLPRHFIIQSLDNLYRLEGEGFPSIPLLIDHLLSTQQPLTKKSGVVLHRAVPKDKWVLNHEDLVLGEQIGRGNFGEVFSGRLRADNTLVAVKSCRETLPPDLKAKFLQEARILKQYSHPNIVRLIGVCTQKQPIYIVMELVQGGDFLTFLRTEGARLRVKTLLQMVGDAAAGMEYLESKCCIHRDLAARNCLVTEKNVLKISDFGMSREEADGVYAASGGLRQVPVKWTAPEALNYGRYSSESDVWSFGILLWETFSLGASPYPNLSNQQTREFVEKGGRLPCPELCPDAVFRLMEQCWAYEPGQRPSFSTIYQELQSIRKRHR

Consider RLSVDCGKKSK [TUBA4A_Y161_Y161C], for which the SH2 binding enrichment in data set [1] is 0.884; in [2] it was 0.984; in [3], 0.846. Also, the phosphorylation enrichment in data set [4] was found to be 1.03; in data set [5] it was 0.444; in [6], 0.788; in [7], 0.471; in [8], 0.828; in data set [9], 0.619. Moreover, the phosphorylation enrichment in data set [10] worked out at 0.551; in data set [11], 0.571; in [12], 1.1; in data set [13], 0.432; in data set [14], 0.684; in data set [15], 0.462. The phosphorylation enrichment in data set [16] is 0.825.
With RMGNLYDIDED [GRIN2A_Y1246], the results for the SH2 binding enrichment in [1], in [2] and in [3] were 1.23, 0.501 and 0.599, respectively. Besides, the phosphorylation enrichment was 0.583 in data set [4]; 0.591 in data set [5]; 0.808 in data set [6]; 1.25 in data set [7]; 1.11 in data set [8]; 0.491 in data set [9]. The phosphorylation enrichment was 2.25 in [10]; 0.543 in data set [11]; 1.36 in [12]; 0.606 in data set [13]; 1.11 in data set [14]; 1.25 in [15]. Also, in data set [16], the phosphorylation enrichment was 1.32.
RNDRVYQPLRD [CD3D_Y149_Q147R]: the SH2 binding enrichment in [1] was 0.943; in [2], 0.727; in data set [3] it was 0.845. Further, the phosphorylation enrichment in data set [4] came out at 0.629; in data set [5], 0.41; in data set [6], 0.616; in [7], 1.55; in data set [8], 0.689; in [9] it was 0.432. The phosphorylation enrichment worked out at 0.675 in data set [10]; 0.475 in data set [11]; 0.509 in data set [12]; 0.786 in data set [13]; 0.604 in [14]; 5.18 in data set [15]. Besides, the phosphorylation enrichment in data set [16] is 0.785.
Take RNFVHYVQGLK [VWF_Y1400_R1399H]: the SH2 binding enrichment in data set [1] came to 0.7; in data set [2], 1.96; in [3] it was 1.14. The phosphorylation enrichment turned out to be 0.511 in data set [4]; 0.429 in [5]; 0.52 in data set [6]; 0.583 in data set [7]; 0.669 in data set [8]; 0.515 in data set [9]. For the same sequence, the phosphorylation enrichment amounted to 0.613 in [10]; 0.349 in data set [11]; 0.605 in data set [12]; 0.544 in data set [13]; 0.875 in data set [14]; 0.369 in data set [15]. In addition, in data set [16], the phosphorylation enrichment was 0.833.
As to RNGNRYFKGIV [DCX_Y64_D62N], the figures for the SH2 binding enrichment in [1], in data set [2] and in data set [3] were 0.509, 0.726 and 0.602, respectively. Further, the phosphorylation enrichment came to 0.516 in data set [4]; 0.578 in [5]; 0.513 in data set [6]; 0.846 in data set [7]; 0.799 in data set [8]; 0.51 in [9]. Moreover, the phosphorylation enrichment amounted to 0.42 in data set [10]; 0.6 in data set [11]; 1.02 in [12]; 0.701 in data set [13]; 1.33 in [14]; 0.527 in [15]. For the same sequence, in data set [16], the phosphorylation enrichment came out at 0.607.
As to RPASVYTKRCS [CPT2_Y508], the figures for the SH2 binding enrichment in data set [1], in [2] and in data set [3] were 0.622, 0.643 and 1.1, respectively. Moreover, the phosphorylation enrichment in [4] was 0.377; in [5] it was 0.586; in data set [6] it was 0.533; in [7], 0.476; in data set [8], 0.687; in [9] it was 0.603. The phosphorylation enrichment in data set [10] came out at 0.623; in [11], 0.459; in data set [12], 0.444; in data set [13] it was 0.442; in data set [14], 0.781; in data set [15], 0.418. In data set [16], the phosphorylation enrichment came to 0.826.
As for RPSRWYQFPVA [ANOS1_Y259_R262P], the SH2 binding enrichment in data set [1] amounted to 1.71; in data set [2], 2.07; in data set [3] it was 1.79. Besides, the phosphorylation enrichment was determined as 0.403 in data set [4]; 2.41 in [5]; 1.38 in [6]; 0.648 in [7]; 0.657 in [8]; 0.433 in [9]. Also, the phosphorylation enrichment amounted to 0.496 in [10]; 0.692 in data set [11]; 0.914 in [12]; 7.23 in data set [13]; 2.95 in data set [14]; 0.5 in data set [15]. Moreover, in data set [16], the phosphorylation enrichment came to 0.889.
With RQGKDYIGAIP [KDR_Y951_V952I], the SH2 binding enrichment in [1] was determined as 0.428; in data set [2], 0.646; in [3], 0.904. Further, the phosphorylation enrichment in data set [4] stood at 0.399; in [5], 0.596; in [6] it was 0.547; in data set [7], 0.837; in [8], 1.88; in data set [9], 0.62. Further, the phosphorylation enrichment came out at 0.715 in data set [10]; 0.462 in [11]; 1.14 in data set [12]; 0.813 in data set [13]; 0.804 in data set [14]; 0.696 in data set [15]. Besides, in data set [16], the phosphorylation enrichment was 0.764.
RRAVKYLQMVG [AVPR2_Y117_C112R]: the SH2 binding enrichment in data set [1] stood at 0.525; in data set [2], 0.695; in [3], 0.84. The phosphorylation enrichment was 0.815 in [4]; 0.52 in data set [5]; 0.629 in [6]; 0.737 in [7]; 0.961 in data set [8]; 1.01 in [9]. Moreover, the phosphorylation enrichment amounted to 0.778 in [10]; 0.431 in data set [11]; 0.887 in data set [12]; 0.727 in data set [13]; 1.13 in [14]; 0.674 in [15]. In data set [16], the phosphorylation enrichment is 0.978.
